Data reported in publication PMC12280157.

What was measured:
[1] = target: APLNR(K235)-cpGFP expressed in zebrafish embryos (human) (UniProt P35414)
[2] = target: APLNR(K235)-cpGFP expressed in zebrafish embryos (human) (UniProt P35414); remark: listed apart in the source
[3] = target: APLNR(K235)-cpGFP expressed in zebrafish embryos (human) (UniProt P35414); remark: listed apart in the source
[4] = target: APLNR(F233)-cpGFP (human) (UniProt P35414)
[5] = target: APLNR(K235)-cpGFP (human) (UniProt P35414)

B1: zebrafish Apelin (ligand)
chain: GPMASTEHSKEIEEVGSMRTPLRQNPARAGRSQRPAGWRRRRPRPRLSHKGPMPF
cpGFP fluorescence intensity of single cells at 1 to 5 cell distances from an apln-expressing cell, zebrafish embryos at 6 hpf; reduction against distance 1 [1]: 23 % reduction
cpGFP fluorescence intensity of the biosensor in intersegmental vessels of zebrafish embryos at 28 hpf, after heat shock-induced apln overexpression, against control siblings [2]: 250 % increase
cpGFP fluorescence intensity of the biosensor in zebrafish embryos at 6 hpf, after heat shock-induced ubiquitous apln overexpression, against wildtype siblings [3]: 27 % increase

DKHGTKHDFLNLRRKYRRHNCPKKRCLPLHSRVPFP (ligand) [zebrafish Apela]
cpGFP fluorescence intensity of the biosensor in zebrafish embryos at 6 hpf, after heat shock-induced ubiquitous apela overexpression, against wildtype siblings [3]: 27 % increase

QRRCMPLHSRVPFP [Apela(19-32)]
EC50 of the increase of cpGFP fluorescence (conformational change of the biosensor), stable HEK293T cells, 37 °C [4]: 7 nM
EC50 of the increase of cpGFP fluorescence (conformational change of the biosensor), stable HEK293T cells, 37 °C [5]: 8 nM
